This is an account of results in PMC3367564.

The target of one experiment is MBP-sAnk1(29-155) (UniProt P16157). Kind of experiment: SPR.
Another experiment has as its target MBP-sAnk1(29-155) D111R (UniProt P16157). Kind of experiment: SPR.
A further experiment has as its target obscurin (UniProt Q5VST9). As to conditions: cited from earlier work.

For “GST-Obsc(6316-6436) E6327A (domain or fragment)”, the peak binding relative to wild type with MBP-sAnk1(29-155) was 40 % of control.
For the substance “GST-Obsc(6316-6436) E6329A (domain or fragment)”, the peak binding relative to wild type in the experiment with MBP-sAnk1(29-155) was 40 % of control.
For “GST-Obsc(6316-6436) K6337E (domain or fragment)”, in the experiment with MBP-sAnk1(29-155) D111R, the ratio of binding to sAnk1-D111R over binding to wild type sAnk1 is 1.7.
In the case of “GST-Obsc(6316-6436) K6338A (domain or fragment)”, the ratio of binding to sAnk1-D111R over binding to wild type sAnk1 with MBP-sAnk1(29-155) D111R was 1.7.
As for “GST-Obsc(6316-6436) K6338E (domain or fragment)”, the ratio of binding to sAnk1-D111R over binding to wild type sAnk1 in the experiment with MBP-sAnk1(29-155) D111R was found to be 3.7.
On to “GST-Obsc(6316-6436) with the two N-terminal glutamates changed to alanines (E6327A, E6329A) (domain or fragment)”, for which the peak binding relative to wild type with MBP-sAnk1(29-155) was 10 % of control.
As to “GST-Obsc(6316-6436), wild type (domain or fragment)”, the ratio of binding to sAnk1-D111R over binding to wild type sAnk1 in the experiment with MBP-sAnk1(29-155) D111R was 1.7.
small ankyrin 1 (from UniProt P16157): in the experiment with obscurin, the dissociation constant (Kd) is 0.13 µM.
